Test results from PMC10314698 (2023).

B1: soluble BCMA (B-cell maturation antigen) (receptor)
chain: MLQMAGQCSQNEYFDSLLHACIPCQLRCSSNTPPLTCQRYCNASVTNSVKGTNA

Legend:
Assay in all cases: SPR
bb2121 (C11D5.3) = biological target: bb2121 (C11D5.3)
[1] = biological target: B1
[2] = biological target: B1

| Kd (bb2121 (C11D5.3)) | koff (bb2121 (C11D5.3)) | Kd [1] | koff [2] | Binder |
| --- | --- | --- | --- | --- |
| 0.328 nM | 0.00155 s⁻¹ |  |  | B1 |
|  |  | 3.7 nM | 0.00393 s⁻¹ | APRIL (a proliferating ligand), IgG2a Fc conjugated binder (Fc fusion) SVLHLVPINATSKDDSDVTEVMWQPALRRGRGLQAQGYGVRIQDAGVYLLYSQVLFQDVTFTMGQVVSREGQGRQETLFRCIRSMPSHPDRAYNSCYSAGVFHLHQGDILSVIIPRARAKLNLSPHGTFLGFVKL |
